Test system: MS2 coat protein
Experiment: apparent KD of MS2 coat protein; designed switch direction (-1 OFF switch, 1 ON switch): -1; higher = weaker reporter binding
Summary of the method: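 Designed RNA switches were transcribed on Illumina chips by stalled E. coli RNA polymerase and titrated with SNAP-549-labelled MS2 coat protein from 0.7 or 1.5 nM, doubling to 3 µM. Step length ran from 0.8–1.5 h at the lowest concentration to 10–20 min at the highest. The apparent KD is the median over clusters for each design, from curve-fitted normalised cluster fluorescence.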

[1] = input ligand: microRNA oligo, concentration not stated
[2] = Eterna round: R95, input ligand: FMN 200 uM
[3] = Eterna round: R95, input ligand: microRNA oligo, concentration not stated
[4] = Eterna round: R95, input ligand: none

Sequence | apparent KD of MS2 coat protein (input ligand: FMN 200 uM) | apparent KD of MS2 coat protein (input ligand: none) | apparent KD of MS2 coat protein [3] | other results
AUGUUACUCUGAGGAUAUUGUUUAUUCUUCUCACAUGAGGAUCACCCAUGUUUCCAUGUUAACCGCAAGAAGGCAGUUUUGUUU [JR_ExcNG2_Sub029] (Eterna round: R96, puzzle: Exclusion NG 2) | 46.1 nM | 36.3 nM |  | apparent KD of MS2 coat protein [1]: 24.5 nM
UUGGUUGUGGUAGGAUAUCCGUUGGAAACCGUCGGAGAAGGACCACAGUCACUGGGUCCUUGUCUGGUGGACUGGAAUCACCAU [pwkr exNG1 F6.15] (Eterna round: R96, puzzle: Exclusion NG 1) | 153 nM | 184 nM |  | apparent KD of MS2 coat protein [1]: 172 nM
AUUGGUUUGCGAGGAUAUGCUAAUAGUAAGUAUGCAGAAGGCGCGUUACAUAGAACCUCUAGUUACAUGAGGAUCACCCAUGUU [JR_ExcNG1_Sub038] (Eterna round: R96, puzzle: Exclusion NG 1) |  |  |  | apparent KD of MS2 coat protein [1]: 40.9 nM
UACCGGCGGACCGAGGCUUUUUGCUCGUCUUGUACUACAACAUGAGGAUCACCCAUGUGGUGGUGGUCCGUUGUAGU [JL ViennaUCT Bitein mod 6] (puzzle: Sensor v3, turn-off variant 2) |  |  | 8.16 nM | apparent KD of MS2 coat protein [2]: 18.9 nM; apparent KD of MS2 coat protein [4]: 25.4 nM
CCUACUUACUAGGAUAUCAGAGUCGAAAGACUCUGAGAAGGAGUAACAUGAGGAUCACCCAUGUGUCCUAUAGG [Mod of Eli 11 - Jieux - Exclusion 6] (Eterna round: R97, puzzle: Exclusion 6) | 52.2 nM | 24.2 nM |  | 
GCCGUACAAGGAUAUCUAUCGCAAAACAUGAGGAUCACCCAUGUGUAUCCUAACCGGCGAAGAGAAGGUGUAGUUA [Letelabe] (Eterna round: R97, puzzle: Exclusion 5) | 24.4 nM | 18.1 nM |  | 
UUGUUAUAUGUAGGAUAUGCAUAUUGUUAUUAUGCAGAAGGACAUGAGGAUCACCCAUGUAUAUUAUUAUUAUAUAUUAUAUAU [Title] (Eterna round: R96, puzzle: Exclusion NG 1) |  |  |  | apparent KD of MS2 coat protein [1]: 22.5 nM
GUGUACAGAGGAUAUGCACGAGUAGUUACGAAAGUAACUAUACAUGAGGAUCACCCAUGUAGAAGGCUGUACAC [Dot plot directed v3] (puzzle: Exclusion 2) |  |  | 12.2 nM | 
CCAGGAAGGCAGGAUAUCCAAAGCCGUCCCGGCGGAGAAGGGCUGACUUGAGGAUCACCCAAGUGAUGCCUAAC [Aratquve] (Eterna round: R97, puzzle: Exclusion 6) | 15.2 nM | 14.8 nM |  | 
GCGACAGCGGUUAGGAUAUAUGUUAGGACGUAGAUAUAGAAGGAACAUGAGGAUCACCCAUGUUUAAAAUGGGA [Eternabot (L1) Solution 71] (Eterna round: R97, puzzle: Brourd's mod of Exclusion 4) | 69.5 nM | 71.9 nM |  | 
AACAGUCUAGAGGAUAUGUGCGAUUAAUAUCGUGCAGAAGGCUGGACAUGAGGAUCACCCAUGUAAAUACUACC [Omei Ex6 A16] (Eterna round: R97, puzzle: Exclusion 6) | 79.4 nM | 34 nM |  | 
CAGUACUGAGGAUAUACAUGAGGAUCACCCAUGUGAUCUAGUGCACGCGUACGUGUACGUAGAAGGCAGUACUG [JL 3.27 m3] (Eterna round: R97, puzzle: Exclusion 3) | 562 nM | 46.8 nM |  | 
CUGUACUGAGGAUAUACAUGAGGAUCACCCAUGUGCUCCAGCUAGGAAACUAGCAAAAGUAGAAGGCAGUACAG [Mat - Exclusion 3 - Eli Mod - D60] (Eterna round: R97, puzzle: Exclusion 3) | 620 nM | 62.5 nM |  | 
AAUUUACAUGAGGAUCACCCAUGUCAGGAUAUGGUUUUAUUUUUUUCUUUUUUUGAUUCCAGAAGGGACAGUUA (puzzle: Exclusion 1) |  |  | 91.5 nM | 
AAGGAUAGAGGAUAUACAUAGAUACAGAUUCAUGUAGUCCUACAUGAGGAUCACCCAUGUAGAAGGCUAUCCUA [Fiskers Ex 2 - 12] (puzzle: Exclusion 2) |  |  | 15.7 nM | 
AGUACAUACACGAAAGUGUAUGUACAAUAAGCUUGUGGAACAUGAGGAUCACCCAUGUCCUCAUAAGCUCGUCUUAU [Mat - Sensor v3 - Turn-off var 2 - D30] (puzzle: Sensor v3, turn-off variant 2) |  |  | 71.4 nM | apparent KD of MS2 coat protein [2]: 16.5 nM; apparent KD of MS2 coat protein [4]: 15.5 nM
GUGGCACAUGAGGAUCACCCAUGUCAGGAUAUCGCGUGGUUUUUUUCGGCCGCGCGCGCGAGAAGGGACGUCUU (Eterna round: R96, puzzle: Exclusion 1) | 26.8 nM | 30.9 nM |  | apparent KD of MS2 coat protein [1]: 22.2 nM
GAUCAACAUGAGGAUCACCCAUGUGAGGAUAUGUAUCAUAGAUCUUCGGAUCUAUGAUACAGAAGGCAUGUGGA [Ex1-3: 100c] (puzzle: Exclusion 1) |  |  | 144 nM | 

Sequence | apparent KD of MS2 coat protein (input ligand: FMN 200 uM) | apparent KD of MS2 coat protein (input ligand: none) | apparent KD of MS2 coat protein [3] | other results
CCUUUGUGAGGAUAUCGUUGGCCAGACAUGAGGAUCACCCAUGUGGCUGGAACUCAUGGACGAGAAGGCACCUCUU [Eternabot (L2) Solution 52] (Eterna round: R97, puzzle: Exclusion 5) | 338 nM | 399 nM |  | 
UUUAAUUUUUUUUUUUUACAAGCUUUUUGCUCGUCUUAUACAUGAGGAUCACCCAUGUGGAUGGGAAAUGAAUUAUC [JMF 97] (puzzle: Sensor v3, turn-off variant 2) |  |  | 115 nM | apparent KD of MS2 coat protein [2]: 18.6 nM; apparent KD of MS2 coat protein [4]: 19.7 nM
UCAACCAGAGGAUAUGCGCAUAGAUCAGACUUUGUUUCUUAACAUGAGGAUCACCCAUGUAGAAGGCUGUAACC [Ex2 #77] (Eterna round: R97, puzzle: Exclusion 2) | 20.3 nM | 19.8 nM |  | 
GAUUACUGCAAGCUUUGGAACAUGAGGAUCACCCAUGUUCGUCUUAUUGAUCUAGGUACGCUGACGUACCUAGAUCU [JL-sv1-2.30 Brourd mod] (puzzle: Sensor v3, turn-off variant 1) |  |  | 16.2 nM | apparent KD of MS2 coat protein [2]: 15.5 nM; apparent KD of MS2 coat protein [4]: 13.6 nM
GCCGAAAAAGUGAGGAUAUACCUAUGGAAACAUAGGUAGAAGGCACAUGAGGAUCACCCAUGUAUCCUAACGGC [Mat - Exclusion 4 - Eli Mod - D28] (Eterna round: R97, puzzle: Brourd's mod of Exclusion 4) | 268 nM | 28.5 nM |  | 
AUCAGCUCGUCAGGAUAUACAUGAGGAUCACCCAUGUGAUCAAUAGCAGCUUCGGCUGCAUUAAUGUAGAAGGGACGAGCUGAU [ENG2/5-B3] (Eterna round: R96, puzzle: Exclusion NG 2) | 175 nM | 407 nM |  | apparent KD of MS2 coat protein [1]: 75 nM
UAACUACAUGAGGAUCACCCAUGUCAGGAUAUGCCAUUAAAUUAACAUCAACAUACGGGUAGAAGGGACAACGU [1st #2] (Eterna round: R97, puzzle: Exclusion 1) | 22.2 nM | 25.6 nM |  | 
GAGCCAUCGUGAGAUGGCUAAAUUACAUGAGGAUCACCCAUGUAGGAUAUCGAUUGCUUUGCAGUCGAGAAGGACAUGUUUAAU [JL ENG3 3.99] (Eterna round: R96, puzzle: Exclusion NG 3) | 67.5 nM | 32.9 nM |  | apparent KD of MS2 coat protein [1]: 27.8 nM
CUACUAGAGACGCGUGGGAACAUGAGGAUCACCCAUGUCAAUGGAGUUUAAACAGGCCCGUCGUUUUGCUCGUCGUG [Eternabot (L2) Solution 41] (Eterna round: R97, puzzle: Sensor, turn-off variant 1) | 113 nM | 132 nM |  | 
GGAAGUAGAAACCGAUCCUACAUGAGGAUCACCCAUGUAGCAAGACGUGCACGCGAAGCUCGUCAGACUACCAGAAC [salish99_TOv1_r3_012] (puzzle: Sensor v3, turn-off variant 1) |  |  | 383 nM | apparent KD of MS2 coat protein [2]: 204 nM; apparent KD of MS2 coat protein [4]: 521 nM
GCUCAGUAAGGAUAUUGUUUAGGAGCUAUAGGCGUAGUUAACAAGAAGGUACAUGAGGAUCACCCAUGUCCAUC [Eternabot (L2) Solution 36] (Eterna round: R97, puzzle: Exclusion 4) | 17.7 nM | 15.1 nM |  | 
GCGUACAGCCUAAGCAGUGACAUGAGGAUCACCCAUGUACGAACGUUUACCAAGCUUGUCUUAAUACCAUUAUAAAU [Eternabot (L1) Solution 20] (Eterna round: R97, puzzle: Sensor, turn-off variant 1) | 23.7 nM | 28.9 nM |  | 
AUCAUGUGAGGAUAUGUGAUCAACCUUCUAUAUAGAUGAUGACAGAAGGCACAUGAGGAUCACCCAUGUAGAUC [Ex4 - 3 - 20] (puzzle: Exclusion 4) |  |  | 45.1 nM | 
CUCAUGCCUGAGGAUAUGCUGUACAAAAGUACUGCAGAAGGCAGAACAUGAGGAUCACCCAUGUGGCGAAAGCC [Omei Ex G1] (Eterna round: R97, puzzle: Exclusion 6) | 549 nM | 106 nM |  | 
AGAUGCUCGAGUCGACAUGAGGAUCACCCAUGUACAGUUAGUGAGGAUAUCUGAGACACAUAGUAGGAGAAGGCGCGAACGUGA [Ex NG3 #14] (Eterna round: R96, puzzle: Exclusion NG 3) |  |  |  | apparent KD of MS2 coat protein [1]: 58.6 nM
AAGAAACAUGAGGAUCACCCAUGUGAGGAUAUGACUAAGAAAAGAAAAGAAAGAAGAAUCAGAAGGCACAAAGG [salish99-ex1_r3_053] (puzzle: Exclusion 1) |  |  | 43 nM | apparent KD of MS2 coat protein [2]: 29.7 nM; apparent KD of MS2 coat protein [4]: 49.3 nM
UACAUGAGGAUCACCCAUGUUUUGUCGUGUAUGGUAUUUAUCUAGGAUAUCAUUCUAUUUAGUUAUGAGAAGGAGAAUAUUAAU [JMF's solution 84] (Eterna round: R96, puzzle: Exclusion NG 3) |  |  |  | apparent KD of MS2 coat protein [1]: 21.1 nM
